Substitutions are numbered along the chain they refer to.
What was measured:
[1] = target: T1, G238A (Homo sapiens, UniProt P18827); test: alanine scan: flow cytometry on HEK-293T cells expressing the mutant clone, 4320 Fab 0.50 ug/mL, normalised to WT CD138; Range %WT Binding 9; Normalized 4320 vs. BB4 30.2
T1 construct: clone of the alanine scanning library on HEK-293T cells; m17 with one substitution; also called CD138 G238A
T1 sequence (CD138 (SDC1), full length, point mutant, looked up): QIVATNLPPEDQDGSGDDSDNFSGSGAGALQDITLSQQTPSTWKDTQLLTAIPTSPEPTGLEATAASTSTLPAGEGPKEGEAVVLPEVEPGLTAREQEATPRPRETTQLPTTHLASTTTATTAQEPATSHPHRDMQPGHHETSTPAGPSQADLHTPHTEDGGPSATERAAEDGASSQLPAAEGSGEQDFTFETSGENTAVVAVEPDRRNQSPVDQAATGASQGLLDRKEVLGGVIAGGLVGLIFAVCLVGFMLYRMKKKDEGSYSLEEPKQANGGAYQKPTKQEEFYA
Method: (§1) Serial dilutions of each MAb were tested for immunoreactivity against cells expressing target protein (WT) or vector alone. Validation of target expression and optimization of detection and binding of anti-CD138 antibodies both by flow cytometry was completed in replicate (N=4). The optimal screening concentration for each MAb was determined based on the raw signal values and signal-to-background calculations specifically optimized for each test article. Optimized parameters included the use of 10% goat serum as blocking reagent. Primary antibody staining was for 60 minutes at 25° C. Wash buffer include phosphate buffered saline (divalent metal ion free), pH 7.4. […] Secondary antibodies were diluted 1:400 and incubated for 30 minutes at 25° C.
(§2) Library screens of very-high-affinity mAbs can fail to yield critical residues for antibody binding due to deficiencies of such an assay to detect and differentiate critical vs. less critical binding based on affinity and quantification of cell binding. One common approach in the literature is the use of monovalent antibody derived fragments such as Fab usually weakens binding sufficiently to allow identification of critical residues for binding. […] Binding of each test Ab to each mutant clone in the alanine scanning library was determined, in duplicate, and likewise evaluated by flow cytometry.

[2] = target: T2, G241A (Homo sapiens, UniProt P18827); test: alanine scan: flow cytometry on HEK-293T cells expressing the mutant clone, 4320 Fab 0.50 ug/mL, normalised to WT CD138; Range %WT Binding 14; Normalized 4320 vs. BB4 53.5
T2 construct: clone of the alanine scanning library on HEK-293T cells; m17 with one substitution; also called CD138 G241A
T2 sequence (CD138 (SDC1), full length, point mutant, looked up): T1 sequence (CD138 (SDC1), full length, point mutant, looked up) with A216G, G219A
Method: as §1, §2

[3] = target: T3, L114A (Homo sapiens, UniProt P18827); test: alanine scan: flow cytometry on HEK-293T cells expressing the mutant clone, 4320 Fab 0.50 ug/mL, normalised to WT CD138; Range %WT Binding 15; Normalized 4320 vs. BB4 30.8
T3 construct: clone of the alanine scanning library on HEK-293T cells; m17 with one substitution; also called CD138 L114A
T3 sequence (CD138 (SDC1), full length, point mutant, looked up): T1 sequence (CD138 (SDC1), full length, point mutant, looked up) with L92A, A216G
Method: as §1, §2

[4] = target: T4, G160A (Homo sapiens, UniProt P18827); test: alanine scan: flow cytometry on HEK-293T cells expressing the mutant clone, 4320 Fab 0.50 ug/mL, normalised to WT CD138; Range %WT Binding 24; Normalized 4320 vs. BB4 60.2
T4 construct: clone of the alanine scanning library on HEK-293T cells; m17 with one substitution; also called CD138 G160A
T4 sequence (CD138 (SDC1), full length, point mutant, looked up): T1 sequence (CD138 (SDC1), full length, point mutant, looked up) with G138A, A216G
Method: as §1, §2

[5] = target: T5, T188A (Homo sapiens, UniProt P18827); test: alanine scan: flow cytometry on HEK-293T cells expressing the mutant clone, 4320 Fab 0.50 ug/mL, normalised to WT CD138; Range %WT Binding 29; Normalized 4320 vs. BB4 59.8
T5 construct: clone of the alanine scanning library on HEK-293T cells; m17 with one substitution; also called CD138 T188A
T5 sequence (CD138 (SDC1), full length, point mutant, looked up): T1 sequence (CD138 (SDC1), full length, point mutant, looked up) with T166A, A216G
Method: as §1, §2

Mean %WT Binding [1]: 28.3 %WT
Mean %WT Binding [2]: 53.5 %WT
Mean %WT Binding [3]: 36.2 %WT
Mean %WT Binding [4]: 59.7 %WT
Mean %WT Binding [5]: 57.4 %WT
B1: Fab fragment of mAb 4320 (Fab, V domains shown)
VH: QVQLVQSGAEVKKPGASVKVSCKASGYSFSSYYMHWVRQAPGQGLEWMGTIHPSDSTTNYNQKFQGRVTMTVDTSTRTAYMELSSLRSEDTAVYYCANFVYWGQGTTVTVSS
VL: DIVMTQTPLSLSVTPGQPASISCKSSKSLLYKDGKTYLNWFLQKPGQSPQLLIYVVSTRASGVPDRFSGSGSGTDFTLKISRVEAEDVGVYYCQQLVEYPYTFGQGTKLEIKR
modifications: N-terminal Q1 observed as pyroglutamic acid (PCA) in the 138-2-5 complex
notes: In the crystal structures heavy chain residues 1-213 were traced; also called Fab4320

From US20230348614A1 (VISTERRA, published 2023)
